# Laboratory results as given in article PMC7210271, “Structural basis for impairment of DNA methylation by the DNMT3A R882H mutation” (Nature Communications, 2020).
# B1: DNMT3A R882H mutant, MTase (C-terminal) domain, residues 628-912 (domain or fragment, UniProt Q9Y6K1 628-912, looked up)
# chain: AEKRKPIRVLSLFDGIATGLLVLKDLGIQVDRYIASEVCEDSITVGMVRHQGKIMYVGDVRSVTQKHIQEWGPFDLVIGGSPCNDLSIVNPARKGLYEGTGRLFFEFYRLLHDARPKEGDDRPFFWLFENVVAMGVSDKRDISRFLESNPVMIDAKEVSAAHRARYFWGNLPGMNRPLASTVNDKLELQECLEHGRIAKFSKVRTITTRSNSIKQGKDQHFPVFMNEKEDILWCTEMERVFGFPVHYTDVSNMSHLARQRLLGRSWSVPVIRHLFAPLKEYFACV
# modifications: catalytic cysteine C710 covalently linked to zebularine of the DNA (in the crystallised complexes)
# notes: DNMT3A, MTase domain (C-terminal domain), residues 628-912, with the AML hotspot mutation R882H; R882H is a mutation found in acute myeloid leukemia patients; it was removed by ULP1; also called R882H-mutated DNMT3A; R882H DNMT3A; source: E. coli BL21 DE3 (RIL), co-expressed with DNMT3L, purified (Ni-NTA, Heparin, SEC); not shown: His6-SUMO, N-terminal, cleaved
# Target: the molecule itself
# Test: crystal structure; DNMT3A(628-912, WT or R882H)-DNMT3L(178-386) tetramer covalently bound to 25-mer zebularine DNA duplex (CGA, CGT or CAG) and SAH; crystals at 4 °C from 0.1 M sodium citrate pH 4.2 or 4.4, PEG8000
protein,measurement,value
B1,binding result,binds
